Source: article PMC11418112
Like-named read-outs stand apart in the source and are kept apart here.

T1: SpoIIAA-P (phosphorylated SpoIIAA) (B. subtilis) (UniProt P10727)
T1 sequence (chain, phosphoserine at 58 (32P in the labelled tracer)): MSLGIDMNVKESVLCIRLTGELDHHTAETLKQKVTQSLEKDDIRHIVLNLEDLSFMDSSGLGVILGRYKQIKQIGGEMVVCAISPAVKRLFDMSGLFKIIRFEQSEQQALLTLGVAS

T2: RsbV-P (phosphorylated RsbV) (B. subtilis) (UniProt P17903)
T2 sequence (chain, phosphoserine at 56 (32P)): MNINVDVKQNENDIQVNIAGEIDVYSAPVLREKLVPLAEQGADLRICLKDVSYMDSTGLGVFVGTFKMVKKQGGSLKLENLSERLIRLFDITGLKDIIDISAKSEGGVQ

T3: SpoIIAA^R67T, phosphorylated (B. subtilis) (UniProt P10727)
T3 sequence (chain, phosphoserine at 58): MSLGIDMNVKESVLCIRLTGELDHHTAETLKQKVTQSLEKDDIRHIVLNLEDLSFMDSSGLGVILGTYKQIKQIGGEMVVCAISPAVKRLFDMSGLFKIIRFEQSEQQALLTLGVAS


Assays:
[1] = biological target: T1, SpoIIAA-P (phosphorylated SpoIIAA) (B. subtilis)
[2] = biological target: T2, RsbV-P (phosphorylated RsbV) (B. subtilis)
[3] = biological target: T1, SpoIIAA-P (phosphorylated SpoIIAA) (B. subtilis); remark: listed apart in the source
[4] = biological target: T3, SpoIIAA^R67T, phosphorylated (B. subtilis)
[5] = biological target: T1, SpoIIAA-P (phosphorylated SpoIIAA) (B. subtilis); remark: listed apart in the source
[6] = biological target: T1, SpoIIAA-P (phosphorylated SpoIIAA) (B. subtilis); remark: listed apart in the source
[7] = biological target: T1, SpoIIAA-P (phosphorylated SpoIIAA) (B. subtilis); remark: listed apart in the source
[8] = biological target: T3, SpoIIAA^R67T, phosphorylated (B. subtilis); remark: listed apart in the source
[9] = biological target: T2, RsbV-P (phosphorylated RsbV) (B. subtilis); remark: listed apart in the source
[10] = biological target: T2, RsbV-P (phosphorylated RsbV) (B. subtilis); remark: listed apart in the source

Binder | KM for SpoIIAA-P as printed in the legend of Figure 4B (multiple turnover, 10 mM MgCl2) [1] [µM] | KM for RsbV-P (single turnover, varying SpoIIE, 10 mM MnCl2, Michaelis-Menten fit) [2] [µM] | kcat of RsbV-P dephosphorylation (single turnover, 10 mM MnCl2, Michaelis-Menten fit) [2] [min^–1] | kcat/KM of RsbV-P dephosphorylation (single turnover, 0.15 μM RsbV-P, 10 mM MnCl2) [2] [μM^–1 min^–1] | kobs of SpoIIAA-P dephosphorylation over time (0.1 μM SpoIIE, 0.5 μM SpoIIAA-P, 10 mM MnCl2) [3] [min^–1] | kobs of SpoIIAA^R67T dephosphorylation over time (0.1 μM SpoIIE, 10 mM MnCl2) [4] [min^–1] | KM for SpoIIAA-P (multiple turnover, 10 mM MgCl2, Michaelis-Menten fit) [5] [µM] | kcat of SpoIIAA-P dephosphorylation (multiple turnover, 10 mM MgCl2, Michaelis-Menten fit) [5] [min^–1] | kcat/KM of SpoIIAA-P dephosphorylation (multiple turnover, 0.1 μM SpoIIE, 10 mM MgCl2) [5] [μM^–1 min^–1] | fold decrease in activity toward SpoIIAA-P with manganese as the metal cofactor, against SpoIIE (Fig. S5) [6] [fold] | fold decrease in rate of dephosphorylation of SpoIIAA-P, against SpoIIE (Fig. S6) [7] [fold] | fold decrease in rate of dephosphorylation of SpoIIAA^R67T, against SpoIIE (Fig. S6) [8] [fold] | kcat of SpoIIAA-P dephosphorylation (multiple turnover, 10 mM MgCl2, Michaelis-Menten fit) [1] [min^–1] | kcat/KM of SpoIIAA-P dephosphorylation (multiple turnover, 0.1 μM SpoIIE, 10 mM MgCl2) [1] [μM^–1 min^–1] | KM for RsbV-P (single turnover, varying SpoIIE, 10 mM MnCl2, Michaelis-Menten fit) [9] [µM] | kcat of RsbV-P dephosphorylation (single turnover, 10 mM MnCl2, Michaelis-Menten fit) [9] [min^–1] | kcat/KM of RsbV-P dephosphorylation, fold change against SpoIIE (Fig. 4C) [10] [fold]
SpoIIE phosphatase domain (SpoIIE^590-827) (domain or fragment) SYRVSTGAAHAAKGGGLVSGDSYSMMELGARKYAAAISDGMGNGARAHFESNETIKLLEKILESGIDEKIAIKTINSILSLRTTDEIYSTLDLSIIDLQDASCKFLKVGSTPSFIKRGDQVMKVQASNLPIGIINEFDVEVVSEQLKAGDLLIMMSDGIFEGPKHVENHDLWMKRKMKGLKTNDPQEIADLLMEEVIRTRSGQIEDDMTVVVVRIDHNTPKWASIPVPAIFQNKQEIS | 0.39 | 12.8 | 0.0086 | 0.00045 | 0.98 | 0.056 | 28.7 | 0.39 | 0.011 |  |  |  |  |  |  |  | 
SpoIIE^P752R (phosphatase domain, SpoIIE^590-827) (domain or fragment) SYRVSTGAAHAAKGGGLVSGDSYSMMELGARKYAAAISDGMGNGARAHFESNETIKLLEKILESGIDEKIAIKTINSILSLRTTDEIYSTLDLSIIDLQDASCKFLKVGSTPSFIKRGDQVMKVQASNLPIGIINEFDVEVVSEQLKAGDLLIMMSDGIFEGRKHVENHDLWMKRKMKGLKTNDPQEIADLLMEEVIRTRSGQIEDDMTVVVVRIDHNTPKWASIPVPAIFQNKQEIS |  | 79.3 | 0.15 | 0.0035 |  |  | 38.6 | 0.15 | 0.0039 |  |  |  |  |  |  |  | 
SpoIIE^3X (triple mutation of E675S, I723S, and P752R; phosphatase domain) (domain or fragment) SYRVSTGAAHAAKGGGLVSGDSYSMMELGARKYAAAISDGMGNGARAHFESNETIKLLEKILESGIDEKIAIKTINSILSLRTTDSIYSTLDLSIIDLQDASCKFLKVGSTPSFIKRGDQVMKVQASNLPIGISNEFDVEVVSEQLKAGDLLIMMSDGIFEGRKHVENHDLWMKRKMKGLKTNDPQEIADLLMEEVIRTRSGQIEDDMTVVVVRIDHNTPKWASIPVPAIFQNKQEIS |  |  |  |  |  |  |  |  |  |  |  |  | 0.011 | 0.00011 | 29.1 | 0.043 | 5

The remaining lines, values ahead:

KM for SpoIIAA-P as printed in the legend of Figure 4B (multiple turnover, 10 mM MgCl2) [1] [µM] | KM for RsbV-P (single turnover, varying SpoIIE, 10 mM MnCl2, Michaelis-Menten fit) [2] [µM] | kcat of RsbV-P dephosphorylation (single turnover, 10 mM MnCl2, Michaelis-Menten fit) [2] [min^–1] | kcat/KM of RsbV-P dephosphorylation (single turnover, 0.15 μM RsbV-P, 10 mM MnCl2) [2] [μM^–1 min^–1] | kobs of SpoIIAA-P dephosphorylation over time (0.1 μM SpoIIE, 0.5 μM SpoIIAA-P, 10 mM MnCl2) [3] [min^–1] | kobs of SpoIIAA^R67T dephosphorylation over time (0.1 μM SpoIIE, 10 mM MnCl2) [4] [min^–1] | KM for SpoIIAA-P (multiple turnover, 10 mM MgCl2, Michaelis-Menten fit) [5] [µM] | kcat of SpoIIAA-P dephosphorylation (multiple turnover, 10 mM MgCl2, Michaelis-Menten fit) [5] [min^–1] | kcat/KM of SpoIIAA-P dephosphorylation (multiple turnover, 0.1 μM SpoIIE, 10 mM MgCl2) [5] [μM^–1 min^–1] | fold decrease in activity toward SpoIIAA-P with manganese as the metal cofactor, against SpoIIE (Fig. S5) [6] [fold] | fold decrease in rate of dephosphorylation of SpoIIAA-P, against SpoIIE (Fig. S6) [7] [fold] | fold decrease in rate of dephosphorylation of SpoIIAA^R67T, against SpoIIE (Fig. S6) [8] [fold] | kcat of SpoIIAA-P dephosphorylation (multiple turnover, 10 mM MgCl2, Michaelis-Menten fit) [1] [min^–1] | kcat/KM of SpoIIAA-P dephosphorylation (multiple turnover, 0.1 μM SpoIIE, 10 mM MgCl2) [1] [μM^–1 min^–1] | KM for RsbV-P (single turnover, varying SpoIIE, 10 mM MnCl2, Michaelis-Menten fit) [9] [µM] | kcat of RsbV-P dephosphorylation (single turnover, 10 mM MnCl2, Michaelis-Menten fit) [9] [min^–1] | kcat/KM of RsbV-P dephosphorylation, fold change against SpoIIE (Fig. 4C) [10] [fold] | Binder
 | 95.7 | 0.063 | 0.00058 | 0.23 | 0.086 | 18.3 | 0.02 | 0.001 | 2 |  |  |  |  |  |  |  | SpoIIE^E675S (phosphatase domain, SpoIIE^590-827) (domain or fragment) SYRVSTGAAHAAKGGGLVSGDSYSMMELGARKYAAAISDGMGNGARAHFESNETIKLLEKILESGIDEKIAIKTINSILSLRTTDSIYSTLDLSIIDLQDASCKFLKVGSTPSFIKRGDQVMKVQASNLPIGIINEFDVEVVSEQLKAGDLLIMMSDGIFEGPKHVENHDLWMKRKMKGLKTNDPQEIADLLMEEVIRTRSGQIEDDMTVVVVRIDHNTPKWASIPVPAIFQNKQEIS
 | 47.6 | 0.018 | 0.00028 |  |  | 29.1 | 0.036 | 0.001 |  | 2 | 2 |  |  |  |  |  | SpoIIE^I723S (phosphatase domain, SpoIIE^590-827) (domain or fragment) SYRVSTGAAHAAKGGGLVSGDSYSMMELGARKYAAAISDGMGNGARAHFESNETIKLLEKILESGIDEKIAIKTINSILSLRTTDEIYSTLDLSIIDLQDASCKFLKVGSTPSFIKRGDQVMKVQASNLPIGISNEFDVEVVSEQLKAGDLLIMMSDGIFEGPKHVENHDLWMKRKMKGLKTNDPQEIADLLMEEVIRTRSGQIEDDMTVVVVRIDHNTPKWASIPVPAIFQNKQEIS
